Source: patent US5580955A, “Fragments of neurofibromin (NF1) and method to reverse activated ras induced malignant transformation in mammalian cells” (Ludwig Institute for Cancer Research, priority 1995, dated 1996)
“Also recorded” adds a separate entry of the source.

What was measured:
[1] = stability of GAP activity to freezing/thawing or storage; type: physicochemical; settings: freezing/thawing or storage at 4° C. for 6 months
c-HaRas protein = assay: Ras GTPase stimulating activity: hydrolysis of [gamma-32P] GTP bound to c-HaRas protein, by GST fusion NF1 mutants; type: biochemical, murine; settings: for Activation (fold), Ras GTPase activation: 20 ug/ml NF1 mutants; for Activation (fold), Ras GTPase activation / EC50, concentration required for 50% hydrolysis of GTP bound Ras: 25° C., 20 minutes
Excerpt: N- and C- terminal deletion mutants were constructed by subcloning the corresponding PCR DNA fragments into the bacterial expression vector pGEX-2TH, as described in Maruta et al., supra. FIG. 4 sets forth the DNA fragments inserted into the expression vector. The number following NF of each mutant indicates the total amino acid residues included. The DNA fragments inserted include the DNA for human type I NF357, human type II NF1-GRD (amino acid residues 1355 to 1531 in addition to the insert of 21 amino acids) and murine c-HaRas (residues 1-189). The type II-specific insert of 21 amino acids is indicated by the number 21 above a triangle following codon 1371. This 21 amino acid insert is set forth in SEQ ID NO: 2. The solid rectangle indicates the GAP active center of 56 amino acids, whereas the shaded rectangle indicates a supporting domain of 22 amino acids.
The expression vectors were transfected into E.coli and the protein expressed as GST fusion proteins. The fusion proteins were thereafter purified from E.coli as glutathione S-transfeRase fusion proteins and affinity-purified on a glutathione (GSH)-agarose column, as described in Maruta, et al., supra.
The purified proteins were then screened for Ras GTPase stimulating activity. The assay was carried out for each of the NF357 deletion mutants.
The hydrolysis of [gamma-^32 P] GTP bound to c-HaRas protein was determined by incubating with bound protein at 25° C. for 20 minutes in the presence or absence of each NF1 mutant preparation in 100 ul of a buffer containing 50 mMTris-HCl, pH 7.5, 15 mMMgCl2, 2.5 mM EDTA, 3 mM ATP, 1 mM dithiothreitol (DTT) and 0.5 mg/ml bovine serum albumin (BSA), then precipitating the unhydrolyzed [gamma-32P] GTP with charcoal, and finally measuring the radioactivity of the [gamma-32P] inorganic phosphate in the supernatant, as described previously, Maruta et al., supra. Protein concentrations were determined by the Bradford method with BSA as a standard.

[2] = system: V-HaRas transformed NIH/3T3 cells; assay: morphology of V-HaRas transformed NIH/3T3 cells overexpressing NF1 fragments; type: cell-based; settings: liquid culture, compared with parental V-HaRas transformed cells
[3] = system: V-HaRas transformed NIH/3T3 cells; assay: soft agar colony (SAC) formation by V-HaRas transformed NIH/3T3 cells transfected with NF1 fragment plasmids; type: cell-based
Experimental: The transfectants were then cloned in the presence of a neomycin analogue, i.e., G418 at 400 ug/ml. The transfectants were initially screened for viability in the G418 medium, following Maruta et al., supra., and Nur-E.-Kamal et al., supra.
After the transfectants were screened for viability, the ability of the parental clone and each surviving transfectant to form soft agar colonies (SAC) were then examined by incubating 1000 cells per plate at 37° C. for three weeks under standard culture conditions, as described in Maruta et al., supra.

Molecule	GAP activity after treatment/storage [1]	Ras GTPase stimulation (in words) (c-HaRas protein)	Activation (fold), Ras GTPase activation (c-HaRas protein) [fold]	EC50, concentration required for 50% hydrolysis of GTP bound Ras (c-HaRas protein) [µg/mL]	reduction of GTPase activity relative to NF91 (c-HaRas protein; deletion of the C-terminal 13 amino acids from NF91) [fold]	efficiency of Ras GTPase stimulation, times less efficient compared to NF342 / NF357 (c-HaRas protein)	cell morphology [2]	cell morphology ([2]; listed as NF91 (Sense))	SAC (%), relative soft agar colony forming ability ([3]; clones with relatively high (H) mRNA level, non-transfected clone #0 = 100) [%]	Colonies/10^3 cells (number of colonies found in soft agar) ([3]; clones with relatively high (H) steady-state mRNA level, 1000 cells per plate, 37° C., three weeks) [Colonies/10^3 cells]	ability to form soft agar colonies (in words) ([3]; compared with non-transfected parental V-HaRas transformed cells)
GAP1C: the 709-1044 amino acid C-terminal GTPase activating domain of GAP1 (protein, UniProt P20936 709-1044, looked up, fragment) RARYSMEKIMPEEEYSEFKELILQKELHVVYALSHVCGQDRTLLASILLRIFLHEKLESLLLCTLNDREISMEDEATTLFRATTLASTLMEQYMKATATQFVHHALKDSILKIMESKQSCELSPSKLEKNEDVNTNLTHLLNILSELVEKIFMASEILPPTLRYIYGCLQKSVQHKWPTNTTMRTRVVSGFVFLRLICPAILNPRMFNIISDSPSPIAARTLILVAKSVQNLANLVEFGAKEPYMEGVNPFIKSNKHRMIMFLDELGNVPELPDTTEHSRTDLSRDLAALHEICVAHSDELRTLSNERGAQQHVLKKLLAITELLQQKQNQYTKTN	completely inactivated										
NF78: NF1 fragment, amino acid residues 1441 to 1518 (protein) RPFNDFVKSNFDAARRFFLDIASDCPTSDAVNHSLSFISDGNVLALHRLLWNNQEKIGQYLSSNRDHKAVGRRPFDKM	not significantly affected	still able to stimulate Ras GTPase activity	6	25	2.5						
NF91: NF1 fragment, amino acid residues 1441 to 1531; GST fusion in Table II, expressed from pMV7 plasmid in cells (protein, UniProt P21359 1441-1531, looked up, fragment, GST fusion) LMSKILQSIANHVLFTKEEHMRPFNDFVKSNFDAARRFFLDIASDCPTSDAVNHSLSFISDGNVLALHRLLWNNQEKIGQYLSSNRDHKAV		still stimulated Ras GTPase activity; also recorded: still able to stimulate normal Ras GTPase activity	10	10		twenty	morphologically flat	Flat	0	0	no longer able to form any soft agar colonies
